The text below walks through data of the supplement of paper PMC12042874.

± gives the uncertainty stated by the source.

This data set can be described thus: amyloid nucleation score (Sup35N fusion, yeast selection) (log enrichment); library NNK1; higher = more nucleation; inactive = no reads after selection. Summed up:
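The nucleation score equals the log enrichment of output over input reads from DiMSum, centred on the mode score of non-aggregating sequences. It was computed only for sequences with 100 or more input reads. The reads came from Illumina sequencing of plasmid inserts from psi-negative yeast expressing Sup35N fused to peptides of 20 random codons, induced with 100 μM copper sulfate for 24 hours and grown 7 days at 30°C without adenine and uracil.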

In the case of QFAHKVYPMSSCLVNVA, the amyloid nucleation score was -0.678 ± 0.57.

The substance SNSKK gave an amyloid nucleation score of 0.009 ± 0.25. The substance ALFGERPCCRC registered an amyloid nucleation score of 0.158 ± 0.28. Substance NRRMCFRCIFGFHVCKLNGW registered an amyloid nucleation score of -0.027 ± 0.5. ITDVMCMGGSTCFGNSGYTN returned an amyloid nucleation score of 0.108 ± 0.56.

As to NKLGLLRVFKVRFPPCCCCD, the amyloid nucleation score was -0.266 ± 0.99. As for TVFMVKDRVILRFGRGLKAW, the amyloid nucleation score is -1.09 ± 1.1.

CQISI: the amyloid nucleation score was -2.17 ± 2.4. On to IDVWCESRVWRTWVYLGVRV, for which the amyloid nucleation score came out at 0.903 ± 0.56.

The substance QKCIVLVMLLGWVFGMPVIG displayed an amyloid nucleation score of 0.129 ± 0.65. KSEDTSRFYTLMMSMYTQRF showed an amyloid nucleation score of 1.76 ± 0.14.

As to SWKPVLSREDFWTNHKGRPM, the amyloid nucleation score came out at 0.565 ± 0.45. For the substance DHLYLMV, the amyloid nucleation score came out at 1.04 ± 0.72. In the case of SMIDFIRSFLYHSY it was -1.1 ± 0.5; in that of CCYWMASALENRSRRIRLHV, -0.612 ± 0.84; in that of SHENSRSNNISSHQP, -0.513 ± 0.34.

SRLAKLSFKQGNTTVCTKSS: the amyloid nucleation score is -0.742 ± 0.62. In the case of YCWCINNH, the amyloid nucleation score is 6.26 ± 0.084.

MSMKQEEVDGSSW registered an amyloid nucleation score of -0.553 ± 1.5. In turn, DFCLNGSYFNTLDNSGCSSL returned an amyloid nucleation score of -0.114 ± 0.52. Take SELPVTGWLLIFLGELTWS: the amyloid nucleation score is -0.88 ± 1.3.

For the substance PILMFTVCMSDSQTVLNFCS, the amyloid nucleation score amounted to 6.56 ± 0.047. On to GIVHAPCDFHTSSFWW, for which the amyloid nucleation score is -0.147 ± 0.84. RDSHSLMVVGFRYELSQGLK gave an amyloid nucleation score of 0.496 ± 1.1. In turn, GNLGI yielded an amyloid nucleation score of -0.31 ± 0.59. On to ARQGASLGVK, for which the amyloid nucleation score was -1.11 ± 1.5.

The substance CSCYAM displayed an amyloid nucleation score of 3.25 ± 0.19. With FWWIGYKTSSDGPRAVAIWC, the amyloid nucleation score is -0.137 ± 0.26. YWSLYSPFYAIHSVILTICQ: the amyloid nucleation score came to 0.496 ± 0.18. As to WFVKLNFLCLCVNMDWHSTY, the amyloid nucleation score came to 0.352 ± 0.28. KLIPCLLVITINLGHKATLS displayed an amyloid nucleation score of 0.482 ± 0.39. Substance VGRGSGPRAQYMWLSKTEAG yielded an amyloid nucleation score of -0.2 ± 0.47. With ICYKGREHKPRIVNIGSDVR, the amyloid nucleation score result was “inactive”.

Substance SILKIALTH had an amyloid nucleation score of -1.71 ± 1.4.

CHGCLGG returned an amyloid nucleation score of -0.312 ± 1.5. Take SVSACPRVPMCIYGYLCWCH: the amyloid nucleation score was -0.311 ± 0.3.

Consider APMHINLWRDGTNVGQDWVV, for which the amyloid nucleation score is 1.88 ± 0.69. With TISCSSYDMWWCFTEAKSTM, the amyloid nucleation score result is “inactive”. Substance KTFYLWW displayed an amyloid nucleation score of 3.04 ± 0.14.

Take FNMPDKQILKLESLWHGMVA: the amyloid nucleation score entry is “inactive”. Consider MCLSPVNNVLLYFRFNKRAE, for which the amyloid nucleation score was 3.38 ± 0.12.

With FNDEHKSSIG, the amyloid nucleation score was -0.549 ± 0.58. Turning to IRHRCSLMICFPAHTRGSAQ, the amyloid nucleation score is -0.219 ± 0.68.

YAPLDDSMKLCHERGESLCM yielded an amyloid nucleation score of 0.186 ± 0.83.

ILCICY gave an amyloid nucleation score of 2.48 ± 0.2. As to VALDSSLHTSVYRIVSLSIG, the amyloid nucleation score is -0.159 ± 0.52. Take FRTYIFP: the amyloid nucleation score was -0.091 ± 0.51. In turn, MDNGTESPLE came in with an amyloid nucleation score of 1.15 ± 0.72. Take ICCGCRYFFSTTSV: the amyloid nucleation score came out at 6.7 ± 0.06. In the case of SSVLATFIKLQHQGRKRKDR it was -0.198 ± 0.29; in that of DAILLHYSNDMLYSYYRRVG, -0.937 ± 0.65; in that of YWSVQG, 0.647 ± 0.75. Take CNLSNVSLLFRYELLISGSY: the amyloid nucleation score worked out at 0.748 ± 0.35. Take IVFFQEDGSWAEWFVGEVLT: the amyloid nucleation score stood at 0.557 ± 0.42. For the substance MRLSNYFTGRDWGF, the amyloid nucleation score is -0.046 ± 0.43. For the substance IVLFSPFTW, the amyloid nucleation score is -0.062 ± 0.31. The substance PFYNSQ had an amyloid nucleation score of -0.371 ± 0.41. In the case of YLKMFV it was 0.01 ± 0.32. In the case of MKVYHSTQEVLWGQGGLLTR it was -0.116 ± 0.42; in that of LFATYLAFKFY, -0.356 ± 1.

PFCRSRHAGHSRSLQVEKFM registered an amyloid nucleation score of -0.004 ± 0.29.

The substance RIRIVNITGAESPMLCLNHE yielded an amyloid nucleation score of 4.42 ± 0.12. Consider VFWWT, for which the amyloid nucleation score is -0.575 ± 0.29. Substance GGFFKRL had an amyloid nucleation score of 0.161 ± 0.36.

Substance ALNFTYLVSSNKHRSED yielded an amyloid nucleation score of 5.12 ± 0.1.

CSFMCLARLVSYQIESLW gave an amyloid nucleation score of -0.062 ± 1.2.

Substance NKVHSSFSLGGLPEARASDE showed an amyloid nucleation score of 0.966 ± 0.66. With YVDSSI, the amyloid nucleation score is -0.08 ± 0.97.

YSIFREW had an amyloid nucleation score of -0.817 ± 0.53.

Substance MASTMPC yielded an amyloid nucleation score of -0.654 ± 1. In the case of KYVIGVNAMEWWPTTTAI, the amyloid nucleation score was determined as 0.166 ± 1.6. For DSYCLRMPIGSCIDWWGKGV, the amyloid nucleation score is -0.058 ± 0.61. Consider SCTASMASPNLEF, for which the amyloid nucleation score result was “inactive”.

Consider RVCVLFSCWRTMYMIWNSRE, for which the amyloid nucleation score was 5.71 ± 0.061. On to TLWTWTSYRVVLYSSSVKLG, for which the amyloid nucleation score was -0.451 ± 0.32. YRVVYRKNVDCTMYQFMSRR came in with an amyloid nucleation score of 0.539 ± 0.31. Turning to FFWLVAK, the amyloid nucleation score is -1.18 ± 1.2. Take RTSTQFPSHQYIQVVLCIS: the amyloid nucleation score entry was “inactive”. Substance WFRIKGTGTLTPLKQHYSIN gave an amyloid nucleation score of -0.355 ± 0.56. Regarding YNKGIRRSDQGLKWTFLWPE, the amyloid nucleation score was -0.712 ± 0.53. On to GLYPKYNVGLNN, for which the amyloid nucleation score is -0.376 ± 0.56. Then MTRNELLSLSLARCVGANAL, with 0.088 ± 1.2. On to YPSVLRINTTFASDLTG, for which the amyloid nucleation score came to 0.894 ± 0.3. For LLKRRTREIAALYRHSSNGY, the amyloid nucleation score was found to be 1.26 ± 0.57. FFFNCMRWSCMKVDHTGFVG returned an amyloid nucleation score of -0.255 ± 0.47.

For the substance EVSHT, the amyloid nucleation score amounted to 0.428 ± 0.25.

LNHCVNMLRGRCGVPLLSVV: the amyloid nucleation score turned out to be 0.551 ± 1.1. Then SPTLARSVWFRCLCTANGRE, with 0.698 ± 0.93; and VKSQCECHVSSFALFCWARD, with 3.85 ± 0.1; and SYDNLRSRREGPEVVGRRAP, with 0.569 ± 0.74. LEITTHTSGIILMKGTPLRR: the amyloid nucleation score is 3.14 ± 0.087. The substance QFMMS returned an amyloid nucleation score of 0.052 ± 0.29. Then PSHLRYAAH, with -0.038 ± 0.54. For the substance VSRYLWIIGRGWVN, the amyloid nucleation score was determined as 0.412 ± 0.39. Turning to LLMYSKWAFTDYGT, the amyloid nucleation score was -0.147 ± 0.74.

Take LYDLNIKWWRGASLVECECL: the amyloid nucleation score was determined as 0.139 ± 0.41. In the case of RDYFTN it was 0.789 ± 0.9; in that of GTTDIFFLLILFFQVVN, 1.14 ± 0.73. With SCLCYEDRSLHGYWNMSYAQ, the amyloid nucleation score stood at 0.938 ± 0.49. With DQITYVPIMNQMMWATLLTF, the amyloid nucleation score turned out to be 0.849 ± 0.59. In turn, GDLRSSILRLPTWRLWWITT came in with an amyloid nucleation score of 0.174 ± 0.29. In the case of ELLEILFCSTIVERKNHRRP it was 2.11 ± 0.11; in that of FFTVSVYLHVRGVAYESAAA, 0.252 ± 0.32; in that of SRMGPGNYWANGKSFAARPP, -0.491 ± 1.4.

Substance MRCPRLASSDNDPCLLSRVS registered an amyloid nucleation score of 0.357 ± 0.39.

For LHETFVCR, the amyloid nucleation score is -0.267 ± 0.58.
